What was measured:
[1] = target: T1, FLRT3 (antigen of the binning assay of Table 2) (Homo sapiens (Human), UniProt Q9NZU0 29-528, limits assumed); test: antibody binning matrix (Table 2); competitor: 14D3
T1 construct: the whole entry for FLRT3 is named
T1 sequence: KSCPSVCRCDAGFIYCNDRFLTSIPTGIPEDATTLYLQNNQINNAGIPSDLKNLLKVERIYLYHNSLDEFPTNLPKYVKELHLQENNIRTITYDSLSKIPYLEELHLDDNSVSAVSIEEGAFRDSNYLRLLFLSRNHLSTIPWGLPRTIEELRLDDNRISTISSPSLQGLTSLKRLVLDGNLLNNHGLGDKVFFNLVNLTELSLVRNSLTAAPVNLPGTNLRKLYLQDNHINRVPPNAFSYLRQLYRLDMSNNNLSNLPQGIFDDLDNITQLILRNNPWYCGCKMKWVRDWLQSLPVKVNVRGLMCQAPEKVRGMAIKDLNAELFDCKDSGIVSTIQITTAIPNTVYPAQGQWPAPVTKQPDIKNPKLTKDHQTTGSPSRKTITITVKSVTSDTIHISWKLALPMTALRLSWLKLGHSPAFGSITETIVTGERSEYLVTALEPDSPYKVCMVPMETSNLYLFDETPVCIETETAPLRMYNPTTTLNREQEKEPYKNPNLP

[2] = target: T1, FLRT3 (antigen of the binning assay of …); test: antibody binning matrix (Table 2); competitor: 5C2
[3] = target: T1, FLRT3 (antigen of the binning assay of …); test: antibody binning matrix (Table 2); competitor: 2F7
[4] = target: T1, FLRT3 (antigen of the binning assay of …); test: antibody binning matrix (Table 2); row '1X Kinetic' (no first antibody), column antibody taken as binder
[5] = target: T1, FLRT3 (antigen of the binning assay of …); test: antibody binning matrix (Table 2); competitor: 14B7
[6] = target: T1, FLRT3 (antigen of the binning assay of …); test: antibody binning matrix (Table 2); competitor: 15G11
[7] = target: T2, human FLRT3 on cells (human, UniProt Q9NZU0 29-649); test: flow cytometry (AF647 MFI), FLRT3-293T-OKT3 cells, antibody titration
T2 construct: also called hFLRT3
T2 sequence: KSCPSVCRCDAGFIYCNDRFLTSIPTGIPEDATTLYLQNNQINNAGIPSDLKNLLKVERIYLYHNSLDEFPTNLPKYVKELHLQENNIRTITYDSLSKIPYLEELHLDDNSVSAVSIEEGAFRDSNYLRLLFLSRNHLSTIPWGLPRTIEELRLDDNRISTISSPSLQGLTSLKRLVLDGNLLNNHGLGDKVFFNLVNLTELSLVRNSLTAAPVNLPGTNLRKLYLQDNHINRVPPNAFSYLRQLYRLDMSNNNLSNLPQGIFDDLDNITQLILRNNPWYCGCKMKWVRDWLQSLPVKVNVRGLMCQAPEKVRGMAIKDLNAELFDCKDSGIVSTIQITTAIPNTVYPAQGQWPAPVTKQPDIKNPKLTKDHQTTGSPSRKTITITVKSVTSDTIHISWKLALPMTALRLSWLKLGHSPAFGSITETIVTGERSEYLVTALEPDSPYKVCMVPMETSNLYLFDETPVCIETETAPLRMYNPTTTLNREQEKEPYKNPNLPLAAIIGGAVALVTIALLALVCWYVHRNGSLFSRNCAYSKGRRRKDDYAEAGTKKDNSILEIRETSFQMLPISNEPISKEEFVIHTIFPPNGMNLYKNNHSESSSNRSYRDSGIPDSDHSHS

[8] = target: T3, FLRT3-His monomeric fusion protein (Homo sapiens (Human), UniProt Q9NZU0 29-528); test: kinetic affinity measurement with FLRT3-His monomer (Table 1)
T3 construct: also called FLRT3 monomer; not shown: His tag
T3 sequence: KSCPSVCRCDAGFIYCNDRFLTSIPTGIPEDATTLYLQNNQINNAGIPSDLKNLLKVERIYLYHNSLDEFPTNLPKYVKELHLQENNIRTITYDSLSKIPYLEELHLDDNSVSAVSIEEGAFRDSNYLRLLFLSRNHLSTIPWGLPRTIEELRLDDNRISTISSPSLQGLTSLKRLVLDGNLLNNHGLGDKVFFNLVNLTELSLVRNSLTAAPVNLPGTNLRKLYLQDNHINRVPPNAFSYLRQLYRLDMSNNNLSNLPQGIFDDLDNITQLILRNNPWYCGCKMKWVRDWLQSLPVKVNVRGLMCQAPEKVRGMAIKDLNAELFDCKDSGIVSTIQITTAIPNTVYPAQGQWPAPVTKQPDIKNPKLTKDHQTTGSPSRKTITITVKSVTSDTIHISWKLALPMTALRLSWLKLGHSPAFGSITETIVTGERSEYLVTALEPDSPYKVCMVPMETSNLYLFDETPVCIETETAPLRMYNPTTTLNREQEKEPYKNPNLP

[9] = target: T1, FLRT3 (antigen of the binning assay of …); test: antibody binning matrix (Table 2); competitor: 1H5
[10] = target: T2, human FLRT3 on cells; test: flow cytometry on 293T cells transfected with human FLRT3, normalised MFI, non-linear fit; Exp 1
Description: (§1) MFI values of each group were normalized within that group- i.e. largest value 100% and smallest value 0%.

[11] = target: T2, human FLRT3 on cells; test: flow cytometry on 293T cells transfected with human FLRT3, normalised MFI, non-linear fit; Exp 2
Description: as §1

[12] = target: T2, human FLRT3 on cells; test: flow cytometry on A549 cells (endogenous hFLRT3), normalised MFI, non-linear fit
Description: Increasing concentrations of FLRT3 antibodies bound to A549 cells that express endogenous hFLRT3 (FIG. 19). Binding curves for the top three antibodies were performed (FIG. 20A). MFI values of each group were normalized within that group- i.e. largest value 100% and smallest value 0% (FIG. 20A). EC50 values were calculated based on non-linear regression fit (FIG. 20B).

[13] = target: T3, FLRT3-His monomeric fusion protein; test: Octet, FLRT3 antibodies and FLRT3 monomer
[14] = target: T2, human FLRT3 on cells; test: flow cytometry on 293T cells transfected with human FLRT3, normalised MFI, non-linear fit
Description: as §1

[15] = target: T4, mouse FLRT3 on transiently transfected 293T cells (mouse, UniProt Q8BGT1 29-649); test: flow cytometry (AF647 MFI), transiently transfected mFLRT3-293T cells
T4 construct: also called mFLRT3
T4 sequence: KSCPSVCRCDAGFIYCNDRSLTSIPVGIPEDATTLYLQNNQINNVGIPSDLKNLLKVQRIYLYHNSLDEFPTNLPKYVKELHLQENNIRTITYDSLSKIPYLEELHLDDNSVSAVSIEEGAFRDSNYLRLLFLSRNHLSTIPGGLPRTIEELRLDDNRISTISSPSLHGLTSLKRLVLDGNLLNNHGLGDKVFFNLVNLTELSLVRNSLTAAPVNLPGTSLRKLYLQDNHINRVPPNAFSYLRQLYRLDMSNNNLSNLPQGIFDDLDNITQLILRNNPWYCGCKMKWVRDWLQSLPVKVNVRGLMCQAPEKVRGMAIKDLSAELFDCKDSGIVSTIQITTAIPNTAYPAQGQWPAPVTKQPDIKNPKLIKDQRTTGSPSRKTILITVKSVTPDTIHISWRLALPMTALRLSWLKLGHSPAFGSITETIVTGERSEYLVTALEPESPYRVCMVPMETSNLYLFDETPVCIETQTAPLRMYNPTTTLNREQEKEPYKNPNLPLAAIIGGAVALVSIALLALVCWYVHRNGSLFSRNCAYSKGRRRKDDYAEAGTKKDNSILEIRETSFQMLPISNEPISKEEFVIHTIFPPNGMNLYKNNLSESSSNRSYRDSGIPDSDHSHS

Row | Binder | binning response (no name or unit printed) [1] | binning response (no name or unit printed) [2] | binning response (no name or unit printed) [3] | binning response (no name or unit printed) [4] | binning response (no name or unit printed) [5] | binning response (no name or unit printed) [6] | Kd [8] [nM] | koff [8] [s⁻¹] | kon [8] [M⁻¹ s⁻¹] | binning response (no name or unit printed) [9] | further results
1 | 1H5 (antibody, V domains shown, Variable domains only) VH: EVQLQQSGPELVKPGASVKMSCKASGYTFTDYYMNWVKQSHGKSLEWIGRVNPSNGVTSYNQKFKGKAALTVDKSLSTAYMQLNSLTSEDSAVYYCARDFLMDYWGQGTSVTVSS VL: DIVMTQSHKFMSTSVGDRVTITCKASQDVGTAVAWYQQKPGQSPKLLIYWASTRHTGVPDRFTGSGSGTDFTLTISNVQSEDLADYFCQQYSSYPTFGGGTKLEIK | 0.549 | -0.26 | -0.0098 | 0.947 | 1.2 | 0.97 | 0.19 | 1.6e-05 | 140000 | -0.0568 | EC50 (read off the curve) [7]: ~10 nM
2 | 2F7 (antibody, V domains shown, Variable domains only) VH: EVQLQQSGPELVKPGASVKMSCKASGYTFTDYYMNWVKQSHGKSLEWIGRVYPSNSGASYNQKFKGKATLTVDKSLSTAYMQLNSLTSEDSAVYYCASSYYFDYWGQGTTLTVSS VL: DIVMTQSHKFMSTSIGDRVNITCKASQDVGTAVAWFQQKPGQSPKLLIYWASTRHTGVPDRFTGSGSGTDFTLTISNVQSEDLADYFCQQYSSYPTFGAGTTLELK | 0.38 | -0.398 | -0.0655 | 0.99 | 1.06 | 0.798 | – | 0.000135 | 177000 | -0.116 | EC50 (read off the curve) [7]: ~8 nM
3 | 12A4 (antibody, V domains shown, Variable domains only) VH: EVQLQQSGPELVKPGASVKMSCKASGYTFTDYYMNWVKQSHGKSLEWIGRVNPSNGGTTYNQRFKGKATLTVDESLSTAYMQLNSLTSEDSAVYYCARDFLMDYWGQGTSVTVSS VL: DIVMTQSHKFMSTSVGDRVSITCKASQDVGTAVTWYQQKPGLSPKLLFYWASTRHTGVPDRFTGSGSGTDFTLTISNVQSEDLADYFCHQYSNYPTFGGGTKLEIK | – | – | – | – | – | – | 0.218 | 3.24e-05 | 133000 | – | EC50 [10]: 15.7 nM; EC50 [11]: 17.7 nM; EC50 [12]: 251 nM
4 | 10C6 (antibody, V domains shown, Variable domains only) VH: EIQLQQSGAEMVKPGASVKISCKASGHSFTGYNMNWVKQSHEKSLEWIGNINPYYGSTSYNQKFKGKATLTVDKSSSTAYMQLNSLTSEDSAVYYCARGGYDDYFDYWGQGTTLTVSS VL: not shown | – | – | – | – | – | – | – | – | – | – | binding result [7]: no binding (tested: about 300 nM)
5 | 20C3 (antibody, V domains shown, Variable domains only) VH: EVKLEESGGGLVQPGGSMKLSCVVSGFTFSNYWMNWVRQSPEKGLEWVAQIRLKSDNYATHYAESVKGRFTISRDDSKSSVYLQMNNLRAEDTGIYYCTGESNIYYGYFDYWGQGTTLTVSS VL: QIVLTQSPAIMSASPGEKVTMTCSASSSVSYMHWYQQKSGTSPKRWIYDTSKLASGVPARFSGSGSGTSYSLTISSMEAEDAATYYCQQWSGNPYTFGGGTKLEIK | – | – | – | – | – | – | 2.21 | 0.000207 | 86200 | – | –
6 | 13B2 (antibody, V domains shown, Variable domains only) VH: EIQLQQSGTELVKPGASVKISCKASGYSFTGYNMNWMKQSHGMSLEWIGNINPYYGSTSYNQKFKGKATLTIDKSSSTAYMQLNSLTSEDSAVYYCARDRKNWEYFFDYWGQGTTLTVSS VL: ETTVTQSPASLSMAIGEKVTIRCITSTDIDDDMNWYQQKPGKPPKLLISEGNTLRPGVPSRFSSSGYGTDFVFTIENMLSEDVADYYCLQSDNLPYTFGGGTKLEIK | – | – | – | – | – | – | – | – | – | – | binding result [13]: no binding; binding result [7]: no binding (tested: about 300 nM)
7 | 7H7 (antibody, V domains shown, Variable domains only) VH: EIQLQQSGAELVKPGASVKISCKASGYSFTGYNMNWVKQSHGKSLEWIGNINPYYGSTSYNQKFKGKATLTVDKSSNTAYMQLNSLTSEDSAVYYCARWGYGYDDWYFDVWGAGTTVTVSS VL: not shown | – | – | – | – | – | – | ≤ 0.001 | ≤ 1e-07 | 60500 | – | –
8 | 14D3 (antibody, V domains shown, Variable domains only) VH: EIQLQQSGAELVKPGASVKISCKASGYSFTGYNMNWVKQSHGKSLEWIGNITPYYGSASYNQKFKGKATLTVDKSSSTAYMQLNSLTSEDSAVYYCARRSYDYDENAMDYWGQGTSVTVSS VL: DIVMTQSHKFMSTSVGDRVSITCKASQDLSTAVAWYQQKPGQSPKLLIYSASYRYTGVPDRFTGSGSGTDFTFTISSVQAEDLAVYYCQQHYSTPLTFGAGTKLELK | -0.0406 | -0.101 | 0.75 | 0.947 | 1.36 | 0.196 | – | – | – | 0.644 | EC50 [10]: 1.82 nM; EC50 [14]: < 5 nM; binding result [15]: binds; EC50 [11]: 3.24 nM; EC50 [12]: 8.21 nM

— patent US20230357384A1 (NEXTCURE, published 2023)
